Laboratory results published in patent US20110045489A1, “Polymerases for Incorporating Modified Nucleotides” (NEW ENGLAND BIOLABS, INC., priority 2008, published 2011).

B1: Mma exo-L417P/Y418A/S420T: exonuclease minus mutant Mma DNA polymerase, SEQ ID NO:23 (protein, listed as Methanococcus maripaludis)
chain: MESLIDLDYNSDDLCIYLYLINSIIKEKDFKPYFYVNSTDKEQILEFLKDYEKKHKLDSEISKMIENIETVKKIVFDENYQEKELSKVTVKYPNNVKTVREILMEFERLYEYDIPFVRRYLIDNSVIPTSTWDFENNKKIDNKIPDFKTVSFAIAVYCNKEPNPKKDPIIMASFSSKDFNTVVSTKKFDHEKLEYVKDEKELIKRIIEILKEYDIIYTYNGDNFDFPYLKKRAESFGLELKLGKNDEKIKITKGGMNSKSYIPGRVHIDLYPIARRLLNLTKYRLENVTEALFDVKKVDVGHENIPKMWDNLDETLVEYSHQDAYYTQRIGEQFLPLEIMFSRVVNQSLYDINRMSSSQMVEYLLLKNSYKMGVIAPNRPSGKEYQKRIRSSYEGGYVKEPLKGIHEDIVSMDFLSPAPTIIMSHNLSPETIDCTCCSDEENGENEEILGHKFCKKSIGIIPKTLMDLINRRKKVKKVLREKAEKGEFDEEYQILDYEQRSIKVLANSHYGYLAFPMARWYSRDCAEITTHLGRQYIQKTIEEAENFGFKVIYADTDGFYSKWADDKEKLSKYELLEKTREFLKNINNTLPGEMELEFEGYFKRGIFVTKKKYALIDENEKITVKGLEVVRRDWSNVSKNTQKNVLNALLKEGSVENAKKVIQDTIKELKDGKVNNEDLLIHTQLTKRIEDYKTTAPHVEVAKKILKSGNRVNTGDVISYIITSGNKSISERAEILENAKNYDTNYYIENQILPPVIRLMEALGITKDELKDSKKQYTLHHFLK
modifications: (1)..(784) exo_ L417P/Y418A/S420T mutant
B2: 9° N exo-L408S/P410V: 9° N DNA polymerase mutant (protein, UniProt Q56366 1-775, looked up, variant D141A E143A L408S P410V)
DNA polymerase: MILDTDYITENGKPVIRVFKKENGEFKIEYDRTFEPYFYALLKDDSAIEDVKKVTAKRHGTVVKVKRAEKVQKKFLGRPIEVWKLYFNHPQDVPAIRDRIRAHPAVVDIYEYDIPFAKRYLIDKGLIPMEGDEELTMLAFAIATLYHEGEEFGTGPILMISYADGSEARVITWKKIDLPYVDVVSTEKEMIKRFLRVVREKDPDVLITYNGDNFDFAYLKKRCEELGIKFTLGRDGSEPKIQRMGDRFAVEVKGRIHFDLYPVIRRTINLPTYTLEAVYEAVFGKPKEKVYAEEIAQAWESGEGLERVARYSMEDAKVTYELGREFFPMEAQLSRLIGQSLWDVSRSSTGNLVEWFLLRKAYKRNELAPNKPDERELARRRGGYAGGYVKEPERGLWDNIVYLDFRSSYVSIIITHNVSPDTLNREGCKEYDVAPEVGHKFCKDFPGFIPSLLGDLLEERQKIKRKMKATVDPLEKKLLDYRQRAIKILANSFYGYYGYAKARWYCKECAESVTAWGREYIEMVIRELEEKFGFKVLYADTDGLHATIPGADAETVKKKAKEFLKYINPKLPGLLELEYEGFYVRGFFVTKKKYAVIDEEGKITTRGLEIVRRDWSEIAKETQARVLEAILKHGDVEEAVRIVKEVTEKLSKYEVPPEKLVIHEQITRDLRDYKATGPHVAVAKRLAARGVKIRPGTVISYIVLKGSGRIGDRAIPADEFDPTKHRYDAEYYIENQVLPAVERILKAFGYRKEDLRYQKTKQVGLGAWLKVKGKK

Experiments:
Type in all cases: biochemical
modified nucleotide = test: Screen of DNA polymerase mutants for modified nucleotide incorporation
From the text: In order to determine the extent of 3′-modified nucleotide incorporation by archaeon DNA polymerases, the titration assay described by Gardner and Jack (2002) was used. In this assay, the efficiency of incorporation of chain terminators was judged by the size of the reaction products in a polymerization reaction. As the efficiency of chain-terminator incorporation increased, the average reaction product size decreased because polymerization was more often halted by terminator addition. By comparing the amount of terminator required to give the same spectrum of reaction products, the relative efficiency of incorporation of the test compounds with the different polymerases was determined.
A complex library of 9° N DNA polymerase mutants was screened for enhanced incorporation of 3′-azido-ddCTP. Several classes of 9° N DNA polymerase mutants were identified with enhanced terminator incorporation. 9° N exo-L408S/Y409A/P410V (Therminator III™, NEB, Inc., Ipswich, Mass.) was purified and characterized in more detail. 9° N DNA polymerase single mutants P410V, L408S, and Y409A and double mutants L408S/P410V, L408S/Y409A, and Y409A/P410V were also purified for comparison. Purification and characterization of DNA polymerase mutants was as described in Gardner and Jack, Nucleic Acids Res. 27:2545-2553 (1999).
A library of 9° N DNA polymerase mutants was constructed by PCR amplification of the polymerase genes using gene-specific primers or codon optimization and gene synthesis Czar et al. Trends Biotechnol 27(2): 63-72 (2009)). The ability to incorporate 3′-modified nucleotide terminators was evaluated by the titration assay for chain terminator incorporation efficiency as described by Gardner and Jack (2002).
Furthermore, the same assay was used to measure 3′-amino-ddCTP incorporation by 9° N exo-L408S/Y409A/P410V (FIG. 3) and to measure rates of incorporation (FIG. 4). Examples of mutants that increased modified nucleotide incorporation by at least two-fold were: […]

3′-O-azidomethyl-dCTP = test: Titration assay, incorporation of 3′-O-azidomethyl-dCTP
Protocol: Reactions were also performed in the absence of terminators to ensure that synthesis by each DNA polymerase was sufficient to extend primers without premature termination (“dNTP” lanes). Reactions with Therminator™ (NEB, Inc., Ipswich, Mass.) and 9° N exo-L408P/Y409A/S411T DNA polymerase (SEQ ID NO:6) were incubated at 72° C. for 30 minutes. Reactions with E. coli Polymerase I (pol I) (NEB, Inc., Ipswich, Mass.), Sequenase™, (USB, Inc., Cleveland, Ohio), Mma exo- and Mma exo-L417P/Y418A/S420T were incubated at 37° C. for 30 minutes. Each band corresponds to a DNA fragment terminated by a 3′-azido-dCMP. Using a titration assay as described in Gardner and Jack (2002), the relative 3′-azido-dCTP incorporation efficiency was determined for a series of DNA polymerases.
Incorporation of 3′-O-azidomethyl-dCTP by various DNA polymerases was measured using the titration assay as described in Example 1. For each reaction, a ratio of either 10:1 or 1:1 3′-O-azidomethyl-dCTP:dNTP was used to generate a termination pattern. Each band corresponded to a DNA fragment terminated by a 3′-azido-dCMP. A control reaction lacking terminator (dNTP) which yielded large extension products gave assurance that the DNA polymerase was active, and that termination products resulted from terminator incorporation rather than incomplete polymerization. Reactions with Therminator™ (NEB, Inc., Ipswich, Mass.) and 9° N exo-L408P/Y409A/S411T DNA polymerase were incubated at 72° C. for 30 minutes. Reactions with E. coli Polymerase I (pol I) (NEB, Inc., Ipswich, Mass.), Sequenase™ (USB, Inc., Cleveland, Ohio), Mma exo- and Mma exo-L417P/Y418A/S420T were conducted at 37° C. for 30 mintues. Therminator™ (NEB, Inc., Ipswich, Mass.) DNA polymerase was assayed with a 1:1 ratio of acyCTP as control.

3′-azido-ddCTP = test: Titration assay for chain terminator incorporation efficiency (3′-azido-ddCTP); conditions: 3′-azido-ddCTP:dNTP 10:1, 2.5:1, 1:2.5; FIG. 1
Protocol: FIG. 1A-1D show titration assays for chain terminator incorporation efficiency. The relative efficiency of incorporation of modified nucleotide terminators was assessed using the titration assay described in Gardner and Jack Nucleic Acids Research 30: 605-613 (2002). A dye-labeled oligonucleotide primer 5′-AGTGAATTCGAGCTCGGTACCCGGGGATCCTCTAGAGTCGACCTGCAGGC-3′ was annealed to a single-stranded M13mp18 DNA template (Accession No. X02513) and extended by a DNA polymerase in the presence of various ratios of 3′-azido-ddCTP:dNTP (10:1, 2.5:1, 1:2.5) or dNTP (“dN” in the figure) alone in 1×ThermoPol buffer (20 mM Tris-HCl, 10 mM (NH4)2SO4,10 mM KCl, 2 mM MgSO4, 0.1% Triton X-100, pH 8.8 @ 25° C.). […]
In order to determine the extent of 3′-modified nucleotide incorporation by archaeon DNA polymerases, the titration assay described by Gardner and Jack (2002) was used. […] By comparing the amount of terminator required to give the same spectrum of reaction products, the relative efficiency of incorporation of the test compounds with the different polymerases was determined. […]
Once the spectrum of termination products was determined, a comparison of the length, uniformity and clarity of these patterns was used to evaluate incorporation of the terminator. […]
The size distribution of termination products was determined by the relative rates of dNTP and terminator incorporation. […]

Molecule	increase of modified nucleotide incorporation (modified nucleotide)	3′-O-azidomethyl-dCTP incorporation / termination of synthesis (3′-O-azidomethyl-dCTP; 10:1 or 1:1 3′-O-azidomethyl-dCTP:dNTP, 72° C. (9° N) or 37° C., 30 minutes)	relative 3′-O-azidomethyl-dCTP incorporation efficiency, rank order (3′-O-azidomethyl-dCTP; 10:1 or 1:1 3′-O-azidomethyl-dCTP:dNTP, 72° C. or 37° C., 30 minutes, FIG. 8)	effect of the mutations on 3′-O-azidomethyl-dCTP incorporation (3′-O-azidomethyl-dCTP; versus parent exo- polymerase)	3′-azido-ddCTP incorporation efficiency relative to wild-type 9° N exo-DNA polymerase (3′-azido-ddCTP)
B1	at least two-fold	incorporated 3′-O-azidomethyl-dCTP efficiently	greater than Mma exo-	increased 3′-O-azidomethyl-dCTP incorporation	
B2	at least two-fold				at least 2 fold
